Test results from publication PMC6811625, “Protein folding while chaperone bound is dependent on weak interactions” (Nature Communications, 2019).
Positions count from the first letter of the chain named. In names and notes the source's numbering stands.

B1: SpyQ100L (natural protein, E. coli, UniProt P77754 24-161, looked up)
chain: ADTTTAAPADAKPMMHHKGKFGPHQDMMFKDLNLTDAQKQQIREIMKGQRDQMKRPPLEERRAMHDIIASDTFDKVKAEAQIAKMEEQRKANMLAHMETLNKIYNILTPEQKKQFNANFEKRLTERPAAKGKMPATAE
notes: Spy of E. coli with Q100L; also called Spy variant Q100L; source: E. coli BL21 (DE3), purified (Ni-His Trap, HiTrap Q, Superdex 75); not shown: His, N-terminal, cleaved; SUMO, N-terminal, cleaved
B2: SpyH96L (natural protein, E. coli, UniProt P77754 24-161, looked up)
chain: B1 chain with H96L, L100Q
notes: Spy of E. coli with H96L; also called Spy variant H96L; source: E. coli BL21 (DE3), purified (Ni-His Trap, HiTrap Q, Superdex 75); not shown: His, N-terminal, cleaved; SUMO, N-terminal, cleaved
B3: wild-type Spy (natural protein, E. coli, UniProt P77754 24-161, looked up)
chain: B1 chain with L100Q
notes: ATP-independent periplasmic chaperone Spy of E. coli; also called SpyWT; Spy dimer; source: E. coli BL21 (DE3), purified (Ni-His Trap, HiTrap Q, Superdex 75); not shown: His, N-terminal, cleaved; SUMO, N-terminal, cleaved
B4: wild-type Gallus gallus Fyn SH3 domain (T85-D142) (domain or fragment)
chain: not shown
notes: 7 residues added to the N terminus of the domain; Tyrosine-protein kinase Fyn, Gallus gallus, SH3 domain, residues T85-D142; a single arginine added to the C terminus of the domain; The same protein was measured native and unfolded (diluted from 9.5 M urea); the quantity of each row says which state; Primer 1 has a BamHI site (GGA TCC, Gly-Ser) before GAMVQIS, so further residues may remain after …

What was measured:
Conditions in all cases: both partners purified
[1] = target: B4; experiment: stopped-flow tryptophan fluorescence kinetics with global fitting; KinTek SF-300X, 25 °C; HN buffer, 0.83 M urea after mixing; 4.8 μM SH3, refolded from 9.5 M urea or native, mixed 1:10.5 with varied Spy (concentrations as dimer); global fit (KinTek Explorer) to the mechanism that allows folding while bound; k-3 fixed at 1000 s^-1
SpyQ100L = target: B1; experiment: ITC; MicroCal iTC200, 25 °C; HN buffer (40 mM HEPES pH 7.5, 50 mM NaCl) with 0.83 M urea; 2.4 mM SH3 in the syringe titrated into 100 μM Spy or Spy variant in the cell; one-site model; native SH3
SpyH96L = target: B2; experiment: as above
wild-type Spy [2] = target: B3; experiment: as above
wild-type Spy [3] = target: B3; experiment: as above; remark: listed apart in the source

Row | Kd (native SH3) [1] [µM] | Kd (unfolded SH3) [1] [µM] | k2 (association, unfolded SH3) [1] [µM⁻¹ s⁻¹] | k3 (association, native SH3) [1] [µM⁻¹ s⁻¹] | k-2 (dissociation, unfolded SH3) [1] [s⁻¹] | Kd (SpyQ100L) [µM] | Kd (SpyH96L) [µM] | Kd (wild-type Spy [2]) [µM] | stoichiometry N (wild-type Spy [3]) | Binder
1 | 17 ± 1 | 0.04 ± 0.003 | 171 ± 8 | 60 ± 2 | 6.8 ± 0.3 | – | – | – | – | B1
2 | 11 ± 1 | 0.76 ± 0.05 | 23 ± 1 | 91 ± 10 | 17.4 ± 0.7 | – | – | – | – | B2
3 | 83 ± 55 | 2.9 ± 0.3 | 14 ± 1 | 12 ± 8 | 39 ± 3 | – | – | – | – | B3
4 | – | – | – | – | – | 107 ± 25 | 71 ± 19 | 50 ± 6 | 1 | B4
